Data: the supplement of paper PMC9170038

System: MS2 coat protein
Test: apparent KD of MS2 coat protein; designed switch direction (-1 OFF switch, 1 ON switch): 1; higher = weaker reporter binding
Outline: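 Designed RNA switches sharing common flanks were transcribed on Illumina chips by stalled E. coli RNA polymerase. They were titrated with SNAP-549-labelled MS2 coat protein, from 0.7 or 1.5 nM doubling to 3 µM, in Tris-HCl pH 7.5 buffer with KCl, MgCl2, BSA, DTT, tRNA and Tween-20. Titrations ran without input, with 200 uM small-molecule ligand, or with an oligonucleotide input. The apparent KD of each design is the median over its clusters, after curve-fitting of normalised cluster fluorescence.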

[1] = input ligand: microRNA oligo, concentration not stated
[2] = Eterna round: R95, input ligand: FMN 200 uM
[3] = Eterna round: R95, input ligand: microRNA oligo, concentration not stated
[4] = Eterna round: R95, input ligand: none

Sequence	apparent KD of MS2 coat protein (input ligand: FMN 200 uM) [nM]	apparent KD of MS2 coat protein [1] [nM]	apparent KD of MS2 coat protein (input ligand: none) [nM]	apparent KD of MS2 coat protein [2] [nM]	apparent KD of MS2 coat protein [3] [nM]	apparent KD of MS2 coat protein [4] [nM]
CUGAGCGAUCGAGGAUAUCACGUCGUUUAGACGUGAGAAGGCGAUCAUAACAUGAGGAUCACCCAUGUAUUACAUGAAGCUCAG [SSNG1/4-A3] (Eterna round: R96, puzzle: Same State NG 1)	16.8	14.9	19.2			
CUGUAUCACGGAGGAUAUGGGCUGAGACCAGGGCAACCCUGGUCAACAUGAGGAUCACCCAUGUCCCAGAAGGCCGCGAUGCUA [Geisorqu] (Eterna round: R96, puzzle: Same State NG 2)	23.8	82.9	137			
CUGUCUACAGGUGUCUUUGCUCGUUUUAUACAUGAGGAUCACCCAUGUUGUAGCCCGGUGCUUGCGCUGGGCUGGUU [JL ViennaUCT Tearor mod 9] (puzzle: Sensor for hsa-mir-208a)				66	15.6	72.7
GAAGGAUGAGCGUAGGAUAUAGGAGGAGUGACAUGAGGAUCACCCAUGUAGUAGGAGGGAGGGUACUAGAAGGACGAGGAAGAAG [JR_SS2_Sub067] (puzzle: Same State 2)				39.7	49.3	51.5
GAAGGAUGAGCGUAGGAUAUAGGAGGAGUGACAUGAGGAUCACCCAUGUGGUAGGAGGGAGGGUACUAGAAGGACGAGGAAGAGG [JR_SS2_Sub069] (Eterna round: R96, puzzle: Same State 2)	102	49.7	84			
GAAGGAUGAGCGUAGGAUAUAGGAGGAGUGACAUGAGGAUCACCCAUGUGGUAGGAGGGAGGGUACUAGAAGGACGAGGAAGAGG [JR_SS2_Sub069] (puzzle: Same State 2)				216	106	161
GACAAUCUAUCUCAGGAUAUCAUGUCAAAGACAUGAGGAUCACCCAUGUACCAGGAAACUGGUUAUGAGAAGGGAGAUAGAUUGG [Mat - Same State 2 - Mod - D27] (puzzle: Same State 2)				179	15.7	5660
GAGAAUCUAUCUCAGGAUAUCAUGUCAAAGACAUGAGGAUCACCCAUGUACCAGGAAACUGGUUAUGAGAAGGGAGAUAGAUUCG [Mat - Same State 2 - Mod - D36] (puzzle: Same State 2)				86.1	111	40.1
GAGAGACAUGAGGAUCACCCAUGUAGAAUAGAACAAGGAUAUGUGGAAGGCGGAGGAGAGACAGAAGGUGUAGGAA [JR_SS1_Sub054] (puzzle: Same State 1)				62.5	76.8	84.9
GAGAGAGGAAGCGAGGAUAUCGUGUGGAGUACAUGAGGAUCACCCAUGUUGUAGGUAGAGGUAGGCGAGAAGGCGCAGGAGAGGU [JR_SS2_Sub097] (puzzle: Same State 2)				34	41.5	58.1
GAGAGAGGGCGAGGAUAUUCGGUGAUAAUGAUGGAAGAAGGCGCUGACAUGAGGAUCACCCAUGUGGGAAUAAUCCAGAGAGAG [Parity 15 - Jieux - Same State NG 1] (Eterna round: R96, puzzle: Same State NG 1)	494	130	237			
GAGGGACAGACCAACAUGAGGAUCACCCAUGUCCUCGCAGUUCAGGAUAUCUGGAGGAAGAAGAAAGAGAAGGGAAGGUGAACC [AK SSNG3-V2-35] (Eterna round: R96, puzzle: Same State NG 3)	312	65.3	120			
GAGUAGUUGAAAGGAUAUUGAUUGUUAUAGGAUCAAGAAGGUUCUAACAUGAGGAUCACCCAUGUAGGACUAUUCCUGUGUAUC [Parity 83 - Jieux - Same State NG 1] (Eterna round: R96, puzzle: Same State NG 1)	11	8.78	12.5			
GAGUAGUUGGGAGGAUAUCGAUUGUUAUAGAAUCGAGAAGGUCCUAACAUGAGGAUCACCCAUGUAGGACUAUUCCUGUGUAUC [Parity 75 - Jieux - Same State NG 1] (Eterna round: R96, puzzle: Same State NG 1)	9.81	7.5	10.6			
GAGUGGCAGUUAGGAUAUAUAGUGAUAAUGACAAUAGAAGGAACAGACAUGAGGAUCACCCAUGUAGGACUAAUCCAGAGAGAG [Parity 36 - Jieux - Same State NG 1] (Eterna round: R96, puzzle: Same State NG 1)	32.1	22.5	30.2			
GAGUGGUGGAAAGGAUAUGCAUUGUUAUUCACUGUAGAAGGUUCUAACAUGAGGAUCACCCAUGUAGGACUAUUCCUGUGUUUU [Parity 59 - Jieux - Same State NG 1] (Eterna round: R96, puzzle: Same State NG 1)		10.2				
GAGUGUGAAUAAGGAUAUAUGAGAGAGUGAGUAAUAGAAGGUAUACAAACAUGAGACAUGAGGAUCACCCAUGUAUCACCCAUG [Something that seems to work] (Eterna round: R96, puzzle: Same State NG 1)		14.5				
GAUCGUUUGAUAGGAUAUCGCUAUACAUGAGGAUCACCCAUGUUUACCACGCUGGUUUUUCGUACCGAGAAGGAUUCUGAUGAU [JL JR sub007 mod 5] (Eterna round: R96, puzzle: Same State NG 2)	31.4	24.4	35.4			
GCAACUCGUAGAGGAUAUGUCCAGCAAGUAUCACAUGAGGAUCACCCAUGUUCAGCUCUACACCUGCAGAAGGCUAUUAGUGCA [Eternabot solution 46] (Eterna round: R96, puzzle: Same State NG 2)	15.8	13.6	17.2			
GCACUCCUAGGAGCUGCGACAUGAGGAUCACCCAUGUAAUCACAGGAUAUGCGAGUCCGAAUUUUGCAGAAGGGUGAUAAGAAC [Biesanarre] (Eterna round: R96, puzzle: Same State NG 3)	404	52.3	45.7			
GCAGAACAUGAGGAUCACCCAUGUCUCAAAUAUUGAGGAUAUGGACACGGUAUAUCCGAACCAGAAGGCGAACUGC [SS1 Teenbexe 18] (puzzle: Same State 1)				66.1	74.3	53.3
GCAGUACAUGAGGAUCACCCAUGUCUCUAAAGUCGAGGAUAUGGGCAGGUUAUAUCCGAACCAGAAGGCGAGCUGC [SS1 Teenbexe 12] (puzzle: Same State 1)				81.5	301	339
GCAGUGGCGGUAGGAUAUCUAGGAUAUGGGAAAGACUAAGUCUGUAGGUCACCUAACCCAGAAGGAGAGAAGGACCCUGUAAGG [pwkr ssNG2 2FMN + F9.21] (Eterna round: R96, puzzle: Same State NG 2)	348	74.7	222			
GCCAACUCAUGAGGAUAUGGCACCUUAAUGGUGCCAGAAGGCAUGUCUAUUGACAUGAGGAUCACCCAUGUAUUAUUGUUGGCA [Fiskers NG1ss - 25] (Eterna round: R96, puzzle: Same State NG 1)	100	241	821			
GCCGCACAUGAGGAUCACCCAUGUAAUUACAUGGGAGGAUAUCAGUGCUCGAAAGAGCACUGAGAAGGCCUGUGGC [SS1 - Omei A v2] (puzzle: Same State 1)				399	31.9	39
GCCGCGUUUCGCGCCUACAUGAGGAUCACCCAUGUAUGUCGGCAGGAUAUCGUUUGCUUUGCAAACGAGAAGGGCUGUUGUGGC [salish99_SSNG3_R04_011] (Eterna round: R96, puzzle: Same State NG 3)	13.4	9.04	14.4			
GCCGCGUUUCGCGCCUACAUGAGGAUCACCCAUGUUUGUAGGCAGGAUAUCGCUCGCUUUGCGGGCGAGAAGGGCUGUUGUGGC [salish99_SSNG3_R04_019] (Eterna round: R96, puzzle: Same State NG 3)	45.8	41.8	54.4			
